Reference: patent US10155985B2, “Evaluation of eosinophilic esophagitis” (CHILDREN'S HOSPITAL MEDICAL CENTER, priority 2004, dated 2018)

B1: SEQ_ID_#72 (nucleic acid, listed as Homo sapiens)
DNA: AGCTATTCATTCATTTAATGAATATTTTTAATATCGATGTACATGCCAGATAATGAAGAGGAGGGGTGTTACAGAAGTATACAACAAATTGTATCATTCAGCAATCCTTTATCCTAGTGGGGAAGATGACTATACAGATAATTACAACTTAAGGCCATTTTTTGGATAAGAAACATAAAAGTGGTACAAACAAAAGTTCAAGGAGGCAAAGACCACTTCTTATTCTGGTTATATGGATAGCCTTCATGGAGAAGGCTTCATGACAGTTGGGTTGGGTCTTGAAGATGTCTACAGGTAGAGCCTCAGAAAAAGGAATATGAAACATAGGGAACAGTAGGAGGAGGGCAGCTTTAGTGACTGGCTCGGTTATACTAGAGCATTGGGATTGTAGAGGAGAATCATGATTGATTAAGGCTATATAGGGCAGTTAGGGCCAGATACTGGGGGAATTTGAATATCAGACTGTTATTTGATGAACAGTGGGAGCAGCTGAAGGTTTTTTTTTTTTTTTTAAAAAAAACAACCTTATTAAGGTAGTG
B2: SEQ_ID_#808 (nucleic acid, listed as Homo sapiens)
DNA: TTTCACTATAGAAAACCTTTAATAACAACTTCAGATTTACATGACCCTTCTGGTGCTCAGAACACTATGGATTAACACACACACTGGAAAGATACAGACACAGGAATCTGCTGCATTACCCCAAATGGCAAAGTCTTGACTGGGGCTTCAGCTCCTTTCCCAATCCAAAATTGGCACCTTTTTCCATGGAAATTCAAACTGCATCTCTAAATGATGGGGTACATGAACTGTCTGTTTCAAAAGTATTTAAAAACAAACAGGAAGTACAGCTTCCATTTCATTAAGAAAACACCACCACAAGACATGGTGCAGTATCTACTAGCTTAAAGTTTATCACTCCATTAGGGCTTATTGACAGCAGAAATGTGAATGTAGTAATGTAGAAATAAGGAAGAGAGCACTTAAGAAAAAAACAGTACAGAAGTTTTAGAGTTTTTTAAACTTTAATAATATGCTTGACTAATATAGTCAAAAGTGATATGCACTCGTGAAATTAACCCATTTTCTGAAGTCCAAATTAGCTATTAAAGTCTTTTTTTACCAAAAACATATAAGGATTTAGTACACTATATAGATTACATAGCTTTCCT
B3: SEQ_ID_#807 (nucleic acid, listed as Homo sapiens)
DNA: TTAGCATTTTTAAATTTTATTATGACTTCATTTGTTTAAATATATATATATATATATATATATATATTTATTTATAGCTCTATGTGCCCACCGCCCCCGGCCCCCTCCCCGGCCCCTAGTTTTTCCCCCTGGCTTTCTGTCTAGTGGCTGTGTAGGGCAGAACCGTCTGCGTGCTCTTGTCTGACACTGTCTGGGTGCTGCTGTTCCTCGTGACCCTTCGAGTCTGTTCAGGGGCCAAGGTAGAGCCTGAGTGGCGGCTGGTCAGTGGAGAGCGCCGTGACTTGTAGGGGGCTGGGGAGGGCTTGTGGGGGCCTGCATGGGCCTCTGTATGGGCAGGCTCAGGGGGCAAGCCCACTTCTTCCTCCTCCACCTCCTGCTCACCGTCCCCCTCCTCATCGTC
B4: SEQ_ID_#840 (nucleic acid, listed as Homo sapiens)
DNA: TACCACACATCTTCTTTATTAATGCATTGACAATCAGTGAAGACAATGAAAACCCACCACTTTTGTCCGTGAACTGAGAAAGAAAATGGCAATGTCATATGGCATTAATGATGCATGAGATCTATGGGTGTAGTGTCACGTCTAGGCGTGTAGTAATCCAGTCTTCGGCCTTACTCCAGGGAGAAAGATTCAGCTTTGTTACTTTCCAGTCACTCTCTCCCGTAACACAGCACCAAGACCGTTTAAAGCACTTAATTAATTCACTTCAGCTTCGCTGGAGAGGTCTCAGGGTTCCCGAGACTCCATTACATAATATCTTTCACAAAGTCTATTCCCAGCTCGAATGGAAGATGGATTCTCATCCAGTGTGCGG
B5: SEQ_ID_#901 (nucleic acid, listed as Homo sapiens)
DNA: CTCCTCGCCCTCCCCACCGACATCATGCTCCAGTTCCTGCTTGGATTTACACTGGGCAACGTGGTTGGAATGTATCTGGCTCAGAACTATGAT
modifications: chemistry not fully specified; the letters are possibly those of the target site
B6: S100P (nucleic acid, listed as Homo sapiens)
DNA: TGAGGCTGCCTTATAAAGCACCAAGAGGCTGCCAGTGGGACATTTTCTCGGCCCTGCCAGCCCCCAGGAGGAAGGTGGGTCTGAATCTAGCACCATGACGGAACTAGAGACAGCCATGGGCATGATCATAGACGTCTTTTCCCGATATTCGGGCAGCGAGGGCAGCACGCAGACCCTGACCAAGGGGGAGCTCAAGGTGCTGATGGAGAAGGAGCTACCAGGCTTCCTGCAGAGTGGAAAAGACAAGGATGCCGTGGATAAATTGCTCAAGGACCTGGACGCCAATGGAGATGCCCAGGTGGACTTCAGTGAGTTCATCGTGTTCGTGGCTGCAATCACGTCTGCCTGTCACAAGTACTTTGAGAAGGCAGGACTCAAATGATGCCCTGGAGATGTCACAGATTCCTGGCAGAGCCATGGTCCCAGGCTTCCCAAAAGTGTTTGTTGGCAATTATTCCCCTAGGCTGAGCCTGCTCATGTACCTCTGATTAATAAATGCTTATGAAATGA
B7: SEQ_ID_#915 (nucleic acid, listed as Homo sapiens)
DNA: CAATAGGAGAAGCCAAGAAACGCAGATGCCGATGCTTAATCAACTCCGTCTCTCCCTCTAGTGACTCGGGGATAGCTGCCCTGATGCCAAGGCGATTGTCTTCTGGAAGCAGCCACGCCGTGTGAGGTTCCTCATCACTGCCCTGCATCTCCCTGCGAGCTCTCGGGGATAATTGCAAAATCACGTTTGATTCCAGGGAGCAGAAAGCAGCAGGAGCCGTGAATTCTCCAACTCTTAACTGGTCCTCGACTGAGCCACTTTTCCCTGCCCACCCATCCCTGTGGCGGATTCATTACAGTTATCCAAAGCCGGTTTTAACTTTGCTCCCCCTGGCTCAGAAGTCTGTCAGTGGGTCCTGAGCGGTTCACCATTCAAGTTTATTCCTATCAGCCTGGAATACAATGCTCTATCTG
B8: SEQ_ID_#906 (nucleic acid, listed as Homo sapiens)
DNA: TGCTTTTGTTGTTGTTTTTAATTTAAAAAGACAAAATTGTTCGCCTTGTATAGAAGTAGATACAGCTTAGAGAGCCAAGGTAACAAGAGGGGAAAAGTTTGTGTTGTCTGGTACTTTTGAGGGAGTCAGAAGCCTAAAGGGAGGCTCTAACTCATGATTCTCAGAAGACAACTGTTGTCAACAGTTCAAATGAGAACTGAACGGCCACACTCCTGCAGCTGAAAGGAGTCAATGCGAGCTGAGTTGCTCTCACCGAACAGAGTGCGTTCCCCGGGGAGGCAGGGAAAGGCCGGCTTGCACCTGCTCTGTCACCCAGCTCCACTCTTAGGACAGAAGAGGTCTGGAAAATGTCTGGG
B9: SEQ_ID_#909 (nucleic acid, listed as Homo sapiens)
DNA: TGCTTTTGTTGTTGTTTTTAATTTAAAAAGACAAAATTGTTCGCCTTGTATAGAAGTAGATACAGCTTAGAGAGCCAAGGTAACAAGAGGGGAAAAGTTTGTGTTGTCTGGTACTTTTGAGGGAGTCAGAAGCCTAAAGGGAGGCTCTAACTCATGATTCTCAGAAGACAACTGTTGTCAACAGTTCAAATGAGAACTGAACGGCCACACTCCTGCAGCTGAAAGGAGTCAATGCGAGCTGAGTTGCTCTCACCGAACAGAGTGCGTTCCCCGGGGAGGCAGGGAAAGGCCGGCTTGCACCTGCTCTGTCACCCAGCTCCACTCTTAGGACAGAAGAGGTCTGGAAAATGTCTGGG

Test system: EE transcriptome
Test: Genome-wide microarray transcript profiling of esophageal biopsies, EE patients vs normal individuals (EE transcriptome)
Details: transcript level in esophageal biopsies of EE patients (n=76) compared to normal individuals (n=13); Affymetrix Human Genome U133 plus 2; p<0.01
Description: Esophageal tissue obtained from patients previously diagnosed with EE was analyzed. Diagnosis was based on analysis of excised tissue from endoscopic biopsy. Tissues from patients with EE, as well as patients not having EE (controls) were subjected to genome-wide microarray transcript profiling (Affymetrix GeneChip). All work was performed at the Core facility at Children's Hospital Medical Center (Cincinnati Ohio).
Briefly, RNA quality was first assessed using the Agilent bioanaiyzer (Agilent Technologies, Palo Alto Calif.). Only mRNA having a ratio of 28S/18S between 1.3 and 2 were subsequently used. RNA was converted to cDNA with Superscript choice for cDNA synthesis (Invitrogen, Carlsbad Calif.) and subsequently converted to biotinylated cRNA with Enzo High Yield RNA Transcript labeling kit (Enzo Diagnostics, Farmingdale N.Y.). After hybridization to the GeneChip (Affymetrix, Santa Clara Calif.), the chips were automatically washed and stained with streptavidin-phycoerythrin using a fluidics system. The chips were scanned with a Hewlett Packard GeneArray Scanner. Over 30,000 unique genes were screened.
Levels of gene transcripts were determined from data image files, using algorithms in the Microarray Analysis Suite software (Affymetrix). Levels from chip to chip were compared by global scaling. Each gene was typically represented by a probe set of 16 to 20 probe pairs. Each probe pair consisted of a perfect match oligonucleotide and a mismatch oligonucleotide that contained a one base mismatch at a central position. Two measures of gene expression were used, absolute call and average difference. Absolute call is a qualitative measure in which each gene is assigned a call of present, marginal or absent, based on the hybridization of the RNA to the probe set. Average difference is a quantitative measure of the level of gene expression, calculated by taking the difference between […] of every probe pair and averaging the differences over the entire probe set. Data were normalized and an EE transcriptome gene list was created with results having p<0.01 (Welch t-test with or without false rate discovery) and ≥1.5-fold change.
For evaluation of EE using clinical and/or physical assessment, biopsy tissues (obtained from the distal esophagus during routine endoscopy) were submerged in formalin for routine pathological analysis with hematoxylin and eosin staining. Diagnosis was established based on the maximum eosinophil count per high power field (hpf) and basal layer expansion according to method known in the art (e.g., established criteria in Rothenberg et al., Pathogenesis and clinical features of eosinophilic esophagitis. J Allergy Clin Immunol 108 (2001) 891; Attwood et al., Esophageal eosinophilia with dysphagia. A distinct clinicopathologic syndrome. Dig Dis Sci 38 (1993)109; Fox et al., Eosinophilic esophagitis: its not just kid's stuff. Gastrointest Endosc 56 (2002) 26, each of which is expressly incorporated by reference herein in its entirety. Normal individuals (NL), n=13, served as a control and were defined as having 0 eosinophils/hpf and no basal layer expansion. Individuals with EE (n=76) were defined as having >24 eosinophils/hpf and extensive basal layer hyperplasia (expansion to about >⅓ of epithelium).
The data were analyzed by cluster analysis and ordered (standard correlation (A) and distance (B)) using Genespring software. […] Each column represented a separate individual and each line a gene. RNA from each patient was subjected to chip analysis using Affymetrix Human Genome U133 GeneChip plus 2.

Row | Molecule | Fold Change
1 | B1 | 4.374

Same assay, conditions: transcript level in esophageal biopsies of EE patients compared to normal individuals (NL); Affymetrix Human Genome U133 plus 2; p<0.01; >1 up-regulated, <1 down-regulated

Row | Molecule | Fold Change
2 | B2 | 1.513
3 | B3 | 1.514
4 | B4 | 0.665
5 | B5 | 0.643
6 | B6 | 1.52
7 | B7 | 0.638
8 | B8 | 0.64
9 | B9 | 0.639
